We go through one molecule from patent US6605443 (LUDWIG INSTITUTE FOR CANCER RESEARCH, dated 2003).

The target of assay [1] is T1, heteromeric complex of kinase-deficient TβR-II and TβR-I (UniProt P36897 34-503; P37173 23-567).
T1 construct: whole, on cells; also called TβR-II KD with TβR-I
In words: co-immunoprecipitation with Flag antiserum of 125I-TGF-β1 affinity-labeled receptors, COS cells. The method, then:
(§1) To obtain insight into the mechanism by which Smad7 exerts its negative role in signaling by TGF-β family members, it was tested whether Smad7, like Smad2 and Smad3 (Zhang et al., *Nature* 383:168–172, 1996; Macías-Silva et al., *Cell* 87:1215–1224, 1996; Nakao et al., 1997), can associate with the TGF-β receptor complex. COS cells transfected with N-terminally Flag-tagged Smad7 in combination with TβR-II (wild-type, WT, or kinase-deficient mutant, KD) and TβR-I (wild-type or kinase deficient mutant) were affinity labeled with ^125I-TGF-β1, and cell lysates were subjected to immunoprecipitation with Flag antiserum against the Flag-epitope in Smad7. Immunoprecipitates were analyzed by SDS-PAGE and FujiX Bio-Imager. Expression of receptors and F-Smad7 after transfection was determined by immunoprecipitation with VPN antibody against TβR-I or DRL antibody against TβR-II on aliquots of cell lysates, and by immunoprecipitation with Flag antibody on lysates [^35S]methionine/cysteine labeled transfected cells. […] In contrast, Smad2 and Smad3 interact stably only with complex of […] (Macías-Silva et al., 1996; Nakao et al., 1997). No interaction was observed between Smad7 and a heteromeric complex of kinase-deficient TβR-II and TβR-I, or with TβR-II alone (FIG. 3). […]

The target in a further assay is T2, TβR-II alone (UniProt P37173 23-567, limits assumed).
T2 construct: whole, on cells
T2 sequence (P37173 23-567 limits assumed): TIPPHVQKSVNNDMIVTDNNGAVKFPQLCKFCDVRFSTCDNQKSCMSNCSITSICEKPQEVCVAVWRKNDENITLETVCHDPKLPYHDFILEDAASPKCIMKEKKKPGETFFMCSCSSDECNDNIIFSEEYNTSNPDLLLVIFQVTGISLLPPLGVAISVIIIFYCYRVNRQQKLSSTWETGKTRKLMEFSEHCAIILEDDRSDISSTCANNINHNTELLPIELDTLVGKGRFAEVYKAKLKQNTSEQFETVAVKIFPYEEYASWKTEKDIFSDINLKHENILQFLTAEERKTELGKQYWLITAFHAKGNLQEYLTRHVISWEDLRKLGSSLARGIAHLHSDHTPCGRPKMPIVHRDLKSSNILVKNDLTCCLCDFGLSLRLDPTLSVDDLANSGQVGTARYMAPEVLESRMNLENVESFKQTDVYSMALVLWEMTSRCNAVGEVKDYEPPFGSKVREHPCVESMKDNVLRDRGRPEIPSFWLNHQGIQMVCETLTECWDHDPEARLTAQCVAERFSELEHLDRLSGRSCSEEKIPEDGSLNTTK
The assay is described as above. The method, then: as §1

T1 sequence (P36897 34-503 limits assumed, chain 1 of 2): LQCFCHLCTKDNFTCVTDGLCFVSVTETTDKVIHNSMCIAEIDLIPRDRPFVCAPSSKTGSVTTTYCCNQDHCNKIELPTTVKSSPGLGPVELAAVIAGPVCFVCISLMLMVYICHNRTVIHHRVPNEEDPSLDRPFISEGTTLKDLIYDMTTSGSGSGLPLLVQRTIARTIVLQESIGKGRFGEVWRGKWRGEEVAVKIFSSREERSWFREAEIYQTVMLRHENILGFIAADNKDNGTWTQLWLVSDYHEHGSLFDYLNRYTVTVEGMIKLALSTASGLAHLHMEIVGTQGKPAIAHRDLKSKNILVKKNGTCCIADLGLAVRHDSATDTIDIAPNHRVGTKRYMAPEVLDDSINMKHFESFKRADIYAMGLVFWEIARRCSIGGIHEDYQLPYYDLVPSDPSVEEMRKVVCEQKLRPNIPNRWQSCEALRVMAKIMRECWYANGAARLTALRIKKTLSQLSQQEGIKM
T1 sequence (P37173 23-567 K277R limits assumed, chain 2 of 2): as the sequence (P37173 23-567 limits assumed) above, with K255R counted along it

B1: N-terminally Flag-tagged Smad7 (F-Smad7) (other, not shown: small tags and cut ends)
chain: MFRTKRSALVRRLWRSRAPGGEDEEEGVGGGGGGGELRGEGATDGRAYGAGGGGAGRAGCCLGKAVRGAKGHHHPHPPTSGAGAAGGAEADLKALTHSVLKKLKERQLELLLQAVESRGGTRTACLLLPGRLDCRLGPGAPASAQPAQPPSSYSLPLLLCKVFRWPDLRHSSEVKRLCCCESYGKINPELVCCNPHHLSRLCELESPPPPYSRYPMDFLKPTAGCPDAVPSSAETGGTNYLAPGGLSDSQLLLEPGDRSHWCVVAYWEEKTRVGRLYCVQEPSLDIFYDLPQGNGFCLGQLNSDNKSQLVQKVRSKIGCGIQLTREVDGVWVYNRSSYPIFIKSATLDNPDSRTLLVHKVFPGFSIKAFDYEKAYSLQRPNDHEFMQQPWTGFTVQISFVKGWGQCYTRQFISSCPCWLEVIFNSR
notes: Expressed by transfection in COS cells and immunoprecipitated with Flag antibody; also called F-mSmad7; mSmad7
In the case of B1, the binding result (in assay [1]; in the assay with TβR-II alone) was “no binding” each time.
